The assay deals with Ib, membrane-binding component of the Iota toxin from Clostridium perfringens (N-terminal cleaved, active) (Clostridium perfringens). Kind of assay: cryo-EM structure.

Consider one substance from article doi:10.1101/2024.10.10.617581.

A word on the stoichiometry N: it is a count of units in the complex or per binding partner.

For the substance “Ib, membrane-binding component of the Iota toxin from Clostridium perfringens (N-terminal cleaved, active) (natural protein)”, the stoichiometry N stood at 7.
